Target: recombinant VEGF (UniProt P15692)
Assay: cell-based or functional assay

Chain of recombinant VEGF (P15692 other isoform, or with tags, fused parts or gaps limits assumed): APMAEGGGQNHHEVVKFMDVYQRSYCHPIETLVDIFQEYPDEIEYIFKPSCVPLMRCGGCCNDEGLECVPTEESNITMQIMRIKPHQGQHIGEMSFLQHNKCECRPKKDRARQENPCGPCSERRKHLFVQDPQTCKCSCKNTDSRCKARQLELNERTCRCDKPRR

inhibition of VEGF-induced proliferation of HUVECs (MTT assay), 40 µL conditioned medium from rAAV.sFlt-1-transduced 293 cells: 32%
Substance: soluble Fms-related tyrosine kinase-1 (sFLT-1) protein, human, secreted by rAAV.sFlt-1-transduced 293 cells (from UniProt P17948 27-450)

Reference: US20130323302A1
